Data reported in publication PMC3195435.

How the values were obtained:
Conditions in all cases: 4% glycerol, 1 mM MgCl2, 1 mM DTT, 50 mM NaCl, 10 mM Tris-HCl pH 7.5, room temperature 30 min; EMSA on 4% native PAGE in 45 mM Tris-borate, 2 mM EDTA pH 8.3 at …
[1] = test system: anti-FLAG M2 antibody (mouse); assay: competition
[2] = test system: anti-FLAG M2 antibody (mouse); assay: EMSA
[3] = test system: anti-FLAG M2 antibody (mouse); assay: bead pull-down, competition

Row | Sequence | binding signal (% inhibition of Flag-TRF2dB capture) [1] | Kd [2] | IC50 [3] | binding signal (% release of bound Flag-TRF2dB) [1]
1 | TCGATTTCCTTAGTTGTCTTCCTTAGTGAG [ABA] | 45 | 80 nM | 96 nM | –
2 | TCGATTTCCTTAGTTGTCTTCCTTAGTTGTCTTCCTTAGTTGTCTTCCTTAGTGAG [3XABA] | 62 | – | – | 36
